Source: patent US20210095041A1 (SURFACE ONCOLOGY, published 2021)
Substitutions are numbered along the chain they refer to. Names and notes keep the numbering of the source.

Legend:
recombinant rat CD39 = biological target: T1, recombinant rat CD39 (rat, UniProt P97687 38-478, limits assumed); assay: BLI (Octet), clone 22 captured on AHC biosensor, recombinant rat CD39 as analyte
T1 sequence (looked up): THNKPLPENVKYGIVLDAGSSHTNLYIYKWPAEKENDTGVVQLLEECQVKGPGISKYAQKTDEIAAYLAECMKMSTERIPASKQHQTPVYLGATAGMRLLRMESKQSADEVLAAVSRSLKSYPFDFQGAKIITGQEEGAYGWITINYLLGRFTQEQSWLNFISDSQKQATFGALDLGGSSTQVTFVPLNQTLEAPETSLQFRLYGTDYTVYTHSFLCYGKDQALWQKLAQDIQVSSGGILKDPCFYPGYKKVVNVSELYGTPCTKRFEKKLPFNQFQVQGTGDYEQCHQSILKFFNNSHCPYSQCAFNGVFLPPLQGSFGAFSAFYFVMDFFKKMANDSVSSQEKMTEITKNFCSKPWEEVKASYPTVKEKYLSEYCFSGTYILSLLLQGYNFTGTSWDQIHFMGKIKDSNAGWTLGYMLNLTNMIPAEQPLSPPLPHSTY
Experimental: (§1) In the first configuration, an Anti-Human Immunoglobulin G (IgG) Fragment Crystallizable (Fc) Capture (AHC) biosensor was used first to capture 1 μg/mL of clone 22 as the ligand onto 8 biosensors and subsequently to measure association (600 s) and dissociation (900 s) of 0 to 5 μg/mL of recombinant CD39 from either human, rat, or cynomolgus monkey as the analyte. A second configuration was required for recombinant mouse CD39 binding analysis, as the positive control antibody was a rat IgG and would not bind to the AHC biosensor. Recombinant mouse CD39 binding to clone 22 was analyzed with this second configuration to achieve a direct comparison with the positive control antibody. […] Subsequently, association (600 s) and dissociation (1200 s) of recombinant mouse CD39 (analyte) was measured at a concentration range of 0 to 5.0 μg/mL for both antibodies. […] Under both configurations, association constants (kₐ) and dissociation constants (kd) were determined and KD was calculated for each antibody where binding of the analyte was observed (clone 22 with recombinant CD39 from both human and cynomolgus monkey and Duha59 positive control antibody with recombinant mouse CD39). Kinetic binding parameters were not determined for interactions where binding was not observed (clone 22 with recombinant CD39 from both mouse and rat).

recombinant mouse CD39 = biological target: T2, recombinant mouse CD39 (mouse, UniProt P55772 38-478, limits assumed); assay: BLI (Octet), clone 22 amine-coupled to AR2G biosensor, recombinant mouse CD39 as analyte
T2 sequence (looked up): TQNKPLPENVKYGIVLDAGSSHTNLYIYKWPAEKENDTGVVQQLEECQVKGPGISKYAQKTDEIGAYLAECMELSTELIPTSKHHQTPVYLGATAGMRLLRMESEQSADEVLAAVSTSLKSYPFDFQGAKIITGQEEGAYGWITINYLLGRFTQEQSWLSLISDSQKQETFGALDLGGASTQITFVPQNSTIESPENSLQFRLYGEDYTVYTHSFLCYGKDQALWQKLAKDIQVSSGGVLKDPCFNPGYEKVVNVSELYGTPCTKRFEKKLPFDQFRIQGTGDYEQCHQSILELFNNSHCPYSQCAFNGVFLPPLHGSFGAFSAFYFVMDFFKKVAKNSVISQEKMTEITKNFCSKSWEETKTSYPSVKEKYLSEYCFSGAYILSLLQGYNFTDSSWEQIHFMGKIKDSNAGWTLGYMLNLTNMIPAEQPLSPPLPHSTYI
Experimental: as §1

recombinant human CD39 = biological target: T3, recombinant human CD39 (human, UniProt P49961 38-478); assay: BLI (Octet), clone 22 captured on AHC biosensor, recombinant human CD39 as analyte, 1:1 model
T3 construct: The clone 1-20 assays used carrier-free human CD39-His lacking transmembrane domains (R&D Systems 4397-EN-010); also called rhCD39
T3 sequence (looked up): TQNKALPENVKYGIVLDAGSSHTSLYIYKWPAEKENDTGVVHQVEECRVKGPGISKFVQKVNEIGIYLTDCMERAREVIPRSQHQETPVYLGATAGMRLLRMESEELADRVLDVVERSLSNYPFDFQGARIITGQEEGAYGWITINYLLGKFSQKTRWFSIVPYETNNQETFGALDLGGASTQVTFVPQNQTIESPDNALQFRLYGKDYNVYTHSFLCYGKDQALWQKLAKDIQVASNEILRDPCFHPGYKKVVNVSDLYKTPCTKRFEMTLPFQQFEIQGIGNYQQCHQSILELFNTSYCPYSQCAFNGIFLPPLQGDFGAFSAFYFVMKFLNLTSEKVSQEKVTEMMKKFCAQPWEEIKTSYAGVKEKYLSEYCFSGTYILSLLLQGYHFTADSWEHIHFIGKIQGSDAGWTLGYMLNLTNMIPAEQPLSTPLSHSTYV
Experimental: as §1

[1] = biological target: T4, recombinant cynomolgus monkey CD39 (cynomolgus monkey, UniProt A0A7N9DGH8 38-478); assay: BLI (Octet), clone 22 captured on AHC biosensor, recombinant cynomolgus monkey CD39 as analyte, 1:1 model
T4 sequence: T3 sequence (looked up) with V10I, F57Y, V184I, I193T, I292V, K331N, A354S
Experimental: as §1

Kd (recombinant human CD39): 1.11 nM
Kd [1]: 0.406 nM
B1: clone 22 (antibody, human IgG4 S228P, kappa, V domains shown)
VH: QVQLVQSGAEVKKPGSSVKVSCKASGGTFSSEGISWVRQAPGQGLEWMGSILPIFGTANYAQKFQGRVTITADESTSTAYMELSSLRSEDTAVYYCAREAGYYRYRYFDLWGRGTLVTVSS
VL: EIVMTQSPATLSVSPGERATLSCRASQSVSSNLAWYQQKPGQAPRLLIYGASTRATGIPARFSGSGSGTEFTLTISSLQSEDFAVYYCQQHALWPLTFGGGTKVEIKR
notes: Human IgG4 with the S228P mutation and a human kappa light chain; also called anti-CD39 antibody clone 22; antibody clone number 22
binding result (recombinant rat CD39): no binding (tested: 0 to 5 µg/mL recombinant rat CD39)
binding result (recombinant mouse CD39): no binding (tested: 0 to 5.0 µg/mL recombinant mouse CD39)
